In the supplement of paper PMC10567573:
± gives the standard deviation.

Assay: protein stability index of a GFP-peptide fusion (GPS, HEK-293T) (PSI 1-6); higher = more stable
[1] = treatment: DMSO, c terminus: a fixed tail appended
[2] = treatment: MLN4924 1 uM, 8 h, c terminus: a fixed tail appended
[3] = treatment: DMSO, c terminus: native
[4] = treatment: MLN4924 1 uM, 8 h, c terminus: native
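Further: 24-mer peptide tiles fused after GFP, lentivirally expressed, FACS-sorted into six equal bins by GFP/DsRed ratio, decoded by Illumina sequencing, PSI is the read-weighted mean bin number.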

Sequence | protein stability index [1] | protein stability index [2] | protein stability index [3] | protein stability index [4]
KASNPDLKLWEIGKIIGGMWRDLT [SMARCE1] | 3.42 ± 1.9 | 2.55 ± 0.64 |  | 
KAVQYEEKNPCRTLCCFCCPCLK [STX11] |  |  | 3.59 ± 0.36 | 3.7 ± 0.084
KDAALATALGDKKSLEGDLEDLKD [LMNB1] | 5.42 ± 0.36 | 5.89 ± 0.14 |  | 
KDGMAFQEALDPGPFDQGSPFAQE [ELF3] | 4.65 ± 0.69 | 4.94 ± 0.12 |  | 
KDGNTPLHVAARYGHELLINTLIT [ANKRD44] | 2.19 ± 0.15 | 2.3 ± 0.46 |  | 
KDMATGKSKGYGFVSFFNKWDAEN [TIA1] | 2.44 ± 0.3 | 2.94 ± 0.28 |  | 
KDRETSKVIYDFIEKTGGVEAVKN [WASL] | 3.28 ± 0.068 | 3.37 ± 0.078 |  | 
KDVSRCVAERKYTQEQARKEFQQV [SMOC2] | 4.49 ± 0.16 | 4.51 ± 0.38 |  | 
KEKQSRDFQGRILSVDPEEEREEG [RHOBTB1] | 5.25 ± 0.24 | 5.46 ± 0.55 |  | 
KEMARKVIEHCSNFKEENMDTSR [ZER1] |  |  | 3.77 ± 0.32 | 4.16 ± 0.61
KENAAAPSPVRAPAPSPAKEERKT [PALM] | 5.45 ± 0.24 | 5.53 ± 0.23 |  | 
KERKLECLPPEPSPDDPESVKIIF [FAF2] | 3.97 ± 0.22 | 4.04 ± 0.16 |  | 
KETELPFPKQILDQNNVIENEETG [MIA2] |  | 5.09 ± 0.62 |  | 
KGKAGRVDLVDESGYVSGYKHAGT [TPPP] | 4.32 ± 0.12 | 4.57 ± 0.18 |  | 
KGKFSTDTKGKPTSRTQVYKPPAL [ZC2HC1A] | 3.77 ± 0.19 | 3.8 ± 0.15 |  | 
KHFCPRAPVILVGCQLDLRYADLE [RHOBTB2] | 2.3 ± 0.65 | 2.52 ± 0.59 |  | 
KHLNASNPTEPATIIFTAAREGRE [TOR1AIP2] | 4.13 ± 0.2 | 4.22 ± 0.27 |  | 
KHNHSKSTWLILHHKVYDLTKFLE [CYB5A] | 2.6 ± 0.55 | 2.49 ± 0.41 |  | 
KILLTKSENARLVLQIDNAKLAAD [KRT36] | 2.99 ± 0.15 | 3.08 ± 0.51 |  | 
KIWLVVPSLLELAWEKLLAAFPNL [KLHDC10] | 2.84 ± 0.16 | 2.73 ± 0.11 |  | 
KIYAYPSNITSETGFRTISSLEEI [TMEM192] | 2.59 ± 0.15 | 2.9 ± 0.3 |  | 
KKDRPLARRKSELPQDPHTKKALE [PPP2R5C] | 5.11 ± 0.2 | 4.96 ± 0.12 |  | 
KKFRSSTSSSLGDKSEYLEMEEGV [KCNA4] | 4.6 ± 0.37 | 4.91 ± 0.28 |  | 

Sequence | protein stability index [1] | protein stability index [2] | protein stability index [3] | protein stability index [4]
KKNHEEEMKEFSSQLAGQVNVEMD [KRT15] | 5.6 ± 0.12 | 5.59 ± 0.23 |  | 
KLIRDFDEKQQEANETLAEMEEEL [VTI1B] | 4.89 ± 0.32 | 5.3 ± 0.19 |  | 
KLLPHQPRIVEMKKGSNGYGFYLR [PDZK1] | 2.37 ± 0.12 | 2.47 ± 0.6 |  | 
KLPSRRQPGLLHLQSCGDLHTFTP [FAM189A2] | 4.92 ± 0.19 | 4.94 ± 0.15 |  | 
KLRAMKELSEAAEAQHGPHSAVAR [STX11] | 4.51 ± 0.13 | 4.6 ± 0.17 |  | 
KLRLFDTPHTPKSLLSKARGIDSS [WEE1] | 3.19 ± 0.092 | 3.26 ± 0.32 |  | 
KMDMSVLEISGIIMSRVNAYQQGV [PHTF1] | 2.5 ± 0.54 | 2.48 ± 0.49 |  | 
KPDDEVKETAHDLDVKSPPEPRSE [RIPK4] | 5.63 ± 0.34 | 5.61 ± 0.37 |  | 
KRLKERSLDTLLEAVESRGGVPGG [SMAD6] | 4.32 ± 0.16 | 4.72 ± 0.12 |  | 
KSGPGDGFFSSAFQARLSGNNLHN [POMT2] | 3.04 ± 0.096 | 2.95 ± 0.41 |  | 
KSPTGLKLKNDTENHQPVSLSDLE [ZNF75A] | 5.3 ± 0.23 | 5.188 ± 0.043 |  | 
KSQLGFLNVTNYCHLAHELRLSCM [DCAF4] | 3.04 ± 0.41 | 2.57 ± 0.36 |  | 
KSVAWEGGACPAFLPSLRPPPLTS [NCF4] | 3.12 ± 0.36 | 3.11 ± 0.078 |  | 
KTAATRYRQKKRAEQEALTGECKE [ATF4] | 4.95 ± 0.16 | 5.1 ± 0.094 |  | 
KTSELLVRKWRVKSALGAMGQWQL [DPCD] | 2.56 ± 0.76 | 2.47 ± 0.41 |  | 
KVEVDMEKIAAEIAQAEEQARKRQ [SMARCE1] | 4.99 ± 0.27 | 4.78 ± 0.37 |  | 
KVPFSQEIKDLILPKISDPNFVKD [PI4K2A] | 3.56 ± 0.24 | 3.56 ± 0.28 |  | 
LAAAVVQEHSNSVGGQDTGATWRT [C18orf25] | 4.22 ± 0.23 | 4.18 ± 0.21 |  | 
LACWTYGISVPSGLFVPSLLCGAA [CLCN6] | 3.13 ± 0.1 | 3.43 ± 0.4 |  | 
LAEYQDLTFLTKQEILLAHRRFCE [CIB1] | 2.3 ± 0.1 | 2.54 ± 0.38 |  | 
LAMNYLDRFLAGVPTPKSHLQLLG [CCND2] | 2.94 ± 0.61 | 2.65 ± 0.76 |  | 
LARKGSLKNGSMGSPVNQQPKKNN [FAM219A] | 4.85 ± 0.25 | 4.77 ± 0.065 |  | 
LAVSRPRSSPDDLKALTRNVNRLN [SCARA5] | 3.82 ± 0.22 | 3.84 ± 0.22 |  | 

Sequence | protein stability index [1] | protein stability index [2] | protein stability index [3] | protein stability index [4]
LCKSVLEIERAIKQTQCPADPLQL [FEM1C] | 3.17 ± 0.13 | 3.11 ± 0.26 |  | 
LCRRLNTLNKCAVMKLEISPHRKR [DLC1] | 2.12 ± 0.069 | 2.85 ± 0.22 |  | 
LDDRKNEEDGGADEHEHPLTSELD [MIA2] | 5.76 ± 0.12 | 5.26 ± 0.38 |  | 
LDFLQEVTRQPRNLQDLCRIKIRQ [ASB7] | 3.35 ± 0.16 | 3.57 ± 0.3 |  | 
LDSEKPKKLRFHPKQLYFSARQGE [EHMT1] | 3.2 ± 0.038 | 3.4 ± 0.21 |  | 
LEETKGRYCMQLSQIQGLIGSVEE [KRT16] | 3.91 ± 0.17 | 3.91 ± 0.2 |  | 
LENTYRDFWLMVWEQKVLVIVMTT [PTPN9] | 2.36 ± 0.7 | 2.59 ± 0.6 |  | 
LENVFSSLTDDKYDVAMNRAKDLV [GOLPH3L] | 3.89 ± 0.32 | 3.92 ± 0.19 |  | 
LEPLKAIIQYRLPMKKNNNLYSWD [ACSBG2] | 2.57 ± 0.47 | 2.17 ± 0.2 |  | 
LESELLRGTQYSSLDSLDGLSLTD [PSD2] | 4.53 ± 0.22 | 4.73 ± 0.21 |  | 
LESSYNDEMLSYLPGGTTGLQLPS [TFE3] | 3.94 ± 0.18 | 3.88 ± 0.27 |  | 
LFAEEQAEGPNRLLYKDGFSTILH [LPCAT4] | 3.17 ± 0.24 | 3.1 ± 0.35 |  | 
LFEEPAPQALATRALPCPAHVVFR [FCHSD1] | 3.13 ± 0.16 | 3.21 ± 0.19 |  | 
LFLGIHVFLVSCALPDSVLRRFVV [AUP1] | 3.03 ± 0.52 | 2.97 ± 0.63 |  | 
LFQVVINPNFEVAESDYSNNIMKC [LOXL2] | 2.09 ± 0.28 | 2.5 ± 0.27 |  | 
LGANEVLLVVGGFGSQQSPIDVVE [KLHL12] | 2.27 ± 0.28 | 2.25 ± 0.85 |  | 
LGCFSDTEPWGGTAIRPLKILPWS [PNLIPRP1] | 2.1 ± 0.28 | 2.43 ± 0.57 |  | 
LGESKEHMESRMVTETEETQEKKA [SDE2] | 5.51 ± 0.3 | 5.75 ± 0.12 |  | 
LGETKAYVFFEKDFGDMHSYVRSR [TRIB1] | 2.62 ± 0.42 | 2.37 ± 0.11 |  | 
LGYPYVNSVSSHASSPYISSVQSY [DLX1] | 2.29 ± 0.18 | 2.35 ± 0.27 |  | 
LHDNHEQMPTEIEFPESRKPISTK [ZNF649] | 5.1 ± 0.22 | 5.25 ± 0.31 |  | 
LHVNPKKQTIGNSCKACGYRGMLD [EIF5] | 2.35 ± 0.29 | 2.44 ± 0.64 |  | 
LIQDGNPMENLEKQLICPICLEMF [TRIM63] | 2.87 ± 0.58 | 2.97 ± 0.54 |  | 

Sequence | protein stability index [1] | protein stability index [2] | protein stability index [3] | protein stability index [4]
LKEFDLDALLGIDDLETMPDDLLT [ATF4] | 3.81 ± 0.2 | 4.05 ± 0.38 |  | 
LKERYQKIGDTKRNTPIEALCENF [CSNK1G1] | 3.43 ± 0.65 | 3.44 ± 0.49 |  | 
LKKSNSAPSKKAAKDPGKGELPNH [FBF1] | 5.14 ± 0.1 | 5.08 ± 0.11 |  | 
LLASSDAALSASMASLLEDLSHIE [SERTAD1] | 3.06 ± 0.37 | 3.27 ± 0.33 |  | 
LLEPEEGGRAYQALHCPTGTEYTC [TRIB3] | 3.8 ± 0.31 | 4.1 ± 0.23 |  | 
LLIANKRQSYDISIVAQVDQTGSK [CARM1] | 2.47 ± 0.25 | 2.52 ± 0.26 |  | 
LLLERAAAGSPRSPGPLPGARGLH [ISL2] | 2.8 ± 0.15 | 2.97 ± 0.049 |  | 
LLQLSDACRFQEDQEMARDLVERA [TCF25] | 3.64 ± 0.34 | 3.77 ± 0.52 |  | 
LLQSFHGHGADVLCLDLAPSETGN [GNB5] | 3.23 ± 0.3 | 3.39 ± 0.14 |  | 
LLRRDLGVGTSMEGASPLSERCQR [FANCE] | 4.01 ± 0.15 | 4.17 ± 0.083 |  | 
LLTVTATDRDEGANGEVTYSFRKL [PCDHGA10] | 4.1 ± 0.26 | 4.15 ± 0.33 |  | 
LMPGMPPGMPPPVPRPGIPPMTQA [ZNF207] | 4.01 ± 0.34 | 4.2 ± 0.31 |  | 
LNEKRTFFHLSALKGYLYAVGGRN [KLHL13] | 2.49 ± 0.68 | 2.33 ± 0.46 |  | 
LPDAGSGRQPALRPHVHKQTEKTT [ISL2] | 5.26 ± 0.22 | 5.04 ± 0.23 |  | 
LPEKPVKLASHTRDTTGVSQMFPS [FBF1] | 3.97 ± 0.13 | 3.99 ± 0.47 |  | 
LPESLARSLLPSTEYQKQLLAAQV [FBF1] | 2.75 ± 0.46 | 2.56 ± 0.26 |  | 
LPGSYLSSECHTSGFVGSGGWFCE [KRT36] | 2.15 ± 0.39 | 2.24 ± 0.26 |  | 
LPIVKLLAKQPGVSVNAQTLDGRT [RIPK4] | 2.71 ± 0.17 | 3.13 ± 0.56 |  | 
LPSRPPPLLSPLLASRNPCPWHYL [RSPH3] | 2.27 ± 0.2 | 2.15 ± 0.22 |  | 
LQDQEKAWGFPENATAPRSPSHSP [ELOA2] | 5.38 ± 0.26 | 5.4 ± 0.26 |  | 
